Results published in the RNAGym collection of RNA variant scans (doi:10.7554/elife.80360).

B1: CPEB3 Ribozyme (parent)
chain: GGGGGCCACAGCAGAAGCGUUCACGUCGCGGCCCCUGUCAGAUUCUGGUGAAUCUGCGAAUUCUGCUGU

Variants of: B1
Assay: self-cleavage, relative activity (ratio to wild type); higher = more cleavage; co-transcriptional

Variant	self-cleavage
GGGGGCCACUGCAGAAGCGUUCACGUCGCGGCCCCUGCCAGAUUCUGGUGAAUCUGCGAAUUCUGCUGU [A10U U38C]	0.99
GGGGGCCACUGCAGAAGCGUUCACGUCGCGGCCCCUGACAGAUUCUGGUGAAUCUGCGAAUUCUGCUGU [A10U U38A]	0.959
GGGGGCCACUGCAGAAGCGUUCACGUCGCGGCCCCUGGCAGAUUCUGGUGAAUCUGCGAAUUCUGCUGU [A10U U38G]	0.154
GGGGGCCACUGCAGAAGCGUUCACGUCGCGGCCCCAGUCAGAUUCUGGUGAAUCUGCGAAUUCUGCUGU [A10U U36A]	0.291
GGGGGCCACUGCAGAAGCGUUCACGUCGCGGCCCCUGUCAGAUUCUGGUGAAUCUGCUAAUUCUGCUGU [A10U G58U]	0.984
GGGGGCCACUGCAGAAGCGUUCACGUCGCGGCCCCUGUCAGAUUCUGGUGAAUCUGCCAAUUCUGCUGU [A10U G58C]	1.02
GGGGGCCACUGCAGAAGCGUACACGUCGCGGCCCCUGUCAGAUUCUGGUGAAUCUGCGAAUUCUGCUGU [A10U U21A]	1
GGGGGCCACUGCAGAAGCGUCCACGUCGCGGCCCCUGUCAGAUUCUGGUGAAUCUGCGAAUUCUGCUGU [A10U U21C]	0.912
GGGGGCCACUGCAGAAGCGUGCACGUCGCGGCCCCUGUCAGAUUCUGGUGAAUCUGCGAAUUCUGCUGU [A10U U21G]	0.581
GGGGGCCACUGCAGAAGCGUUCACGUCGCGGCCCCUGUCAGAUUCUGGUGAAUCUGCGAAUUCUGCUCU [A10U G68C]	1.05
GGGGGCCACUGCAGAAGCGUUCACGUCGCGGCCCCUGUCAGAUUCUGGUGAAUCUCCGAAUUCUGCUGU [A10U G56C]	0.84
GGGGGCCACUGCAGAAGCGUUCACGUCGCGGCCCCUGUCAAAUUCUGGUGAAUCUGCGAAUUCUGCUGU [A10U G41A]	0.844
GGGGGCCACUGCAGAAGCGUUCACGUCGCGGCCCCUGUCAUAUUCUGGUGAAUCUGCGAAUUCUGCUGU [A10U G41U]	0.86
GGGGGCCACUGCAGAAGCGUUCACGUCGCGGCCCCUGUCAGAUUCUAGUGAAUCUGCGAAUUCUGCUGU [A10U G47A]	1.03
GGGGGCCACUGCAGAAGCGUUCACGUCGCGGCCCCUGUCAGAUUCUUGUGAAUCUGCGAAUUCUGCUGU [A10U G47U]	0.962
GGGGGCCACUGCAGAAGCGUUCACGUCGCGGCCCCUGUCAGAUUCUCGUGAAUCUGCGAAUUCUGCUGU [A10U G47C]	0.991
GGGGGCCACUGCAGAAGCGUUCACGUCGCGGCCCCUGUCAGAUUCUGGUAAAUCUGCGAAUUCUGCUGU [A10U G50A]	0.978
GGGGGCCACUGCAGAAGCGUUCACGUCGCGGCCCCUGUCAGAUUCUGGUCAAUCUGCGAAUUCUGCUGU [A10U G50C]	1
GGGGGCCACUGCAGAAGCGUUCACGUCGCAGCCCCUGUCAGAUUCUGGUGAAUCUGCGAAUUCUGCUGU [A10U G30A]	0.922
GGGGGCCACUGCAGAAGCGUUCACGUCGCCGCCCCUGUCAGAUUCUGGUGAAUCUGCGAAUUCUGCUGU [A10U G30C]	0.992

Variant	self-cleavage
GGGGGCCACUGCAGAAGCGUUCACGACGCGGCCCCUGUCAGAUUCUGGUGAAUCUGCGAAUUCUGCUGU [A10U U26A]	0.917
GGGGGCCACUGCAGAAGCGUUCACGCCGCGGCCCCUGUCAGAUUCUGGUGAAUCUGCGAAUUCUGCUGU [A10U U26C]	0.986
GGGGGCCACUGCAGAAUCGUUCACGUCGCGGCCCCUGUCAGAUUCUGGUGAAUCUGCGAAUUCUGCUGU [A10U G17U]	0.512
GGGGGCCACUGCAGAAGCGCUCACGUCGCGGCCCCUGUCAGAUUCUGGUGAAUCUGCGAAUUCUGCUGU [A10U U20C]	0.232
GGGGGCCACUGCAGAAGCGAUCACGUCGCGGCCCCUGUCAGAUUCUGGUGAAUCUGCGAAUUCUGCUGU [A10U U20A]	0.122
GGGGGCCACUGCAGAAGCGGUCACGUCGCGGCCCCUGUCAGAUUCUGGUGAAUCUGCGAAUUCUGCUGU [A10U U20G]	0.19
GGGGGCCACUGCAGAAGCUUUCACGUCGCGGCCCCUGUCAGAUUCUGGUGAAUCUGCGAAUUCUGCUGU [A10U G19U]	0.589
GGGGGCCACUGCAGAAGCCUUCACGUCGCGGCCCCUGUCAGAUUCUGGUGAAUCUGCGAAUUCUGCUGU [A10U G19C]	0.119
GGGGGCCACUGCAGAAGCAUUCACGUCGCGGCCCCUGUCAGAUUCUGGUGAAUCUGCGAAUUCUGCUGU [A10U G19A]	0.15
GGGGGCCACUGCAGAAGCGUUCACGUCGCGGCCCCUGUCAGAUUCUGUUGAAUCUGCGAAUUCUGCUGU [A10U G48U]	1
GGGGGCCACUGCAGAAGCGUUCACGUCGCGCCCCCUGUCAGAUUCUGGUGAAUCUGCGAAUUCUGCUGU [A10U G31C]	0.262
GGGGGCCACUGCAGAAGCGUUCACUUCGCGGCCCCUGUCAGAUUCUGGUGAAUCUGCGAAUUCUGCUGU [A10U G25U]	0.162
GGGGGCCACUGCAGAAGCGUUCACCUCGCGGCCCCUGUCAGAUUCUGGUGAAUCUGCGAAUUCUGCUGU [A10U G25C]	0.155
GGGGGCCACUGCAGAAGCGUUCACGUCGCGGCCCCUGUCAGAUCCUGGUGAAUCUGCGAAUUCUGCUGU [A10U U44C]	0.949
GGGGGCCACUGCAGAAGCGUUCACGUCGCGGCCCCUGUCAGAUGCUGGUGAAUCUGCGAAUUCUGCUGU [A10U U44G]	0.928
GGGGGCCACUGCAGAAGCGUUCACGUCGCGGCCCCUGUCAGAUUCGGGUGAAUCUGCGAAUUCUGCUGU [A10U U46G]	1.01
GGGGGCCACUGCAGAAGCGUUCACGUCGCGGCCCCUGUCAGAUUCUGGUGAAUCUGCGAAUUCUCCUGU [A10U G65C]	0.627
GGGGGCCACUGCAGAAGCGUUCACGUCGCGGCCCCUAUCAGAUUCUGGUGAAUCUGCGAAUUCUGCUGU [A10U G37A]	0.322
GGGGGCCACUGCAGAAGCGUUCACGUCGCGGCCCCUUUCAGAUUCUGGUGAAUCUGCGAAUUCUGCUGU [A10U G37U]	0.203
